Source: publication PMC4887326, “Structural insights into the regulatory mechanism of the Pseudomonas aeruginosa YfiBNR system” (Protein & Cell, 2016)
Where a chain is given by its changes, count along the chain named. Numbers in names are those of the source.

B1: YfiR (residues 35–190), co-expressed with YfiB (domain or fragment, P. aeruginosa, UniProt Q9I4L4 35-190, looked up)
chain: DDARTSIEQRSNAVSQVLLGIFSYVRWPKEPAVLQLCVVGPTEYADGLLRGMVQANGRRVHAERRAVDNPDLGTLCNVIYLGVVDERERQQVFRSLAGHPVLSISERGTECSVGSMFCLNVGGPRITFEANLDSIARSGVRVHPSVLKLARRQATP
notes: YfiR, P. aeruginosa, residues 35-190, lacking the signal peptide; ORF1 of pETDuet-1 with N-terminal His6 and a TEV cleavage site; Dimer in the 2:2 complex; only the Cys145-Cys152 disulfide is well formed there; not shown: His6, N-terminal, kept
B2: YfiR (residues 35–190), purified alone (domain or fragment, P. aeruginosa, UniProt Q9I4L4 35-190, looked up)
chain: B1 chain
notes: YfiR, P. aeruginosa, residues 35-190, lacking the predicted N-terminal periplasmic localization signal peptide; also called native YfiR; not shown: His6, N-terminal, cleaved
B3: YfiB (residues 34–168), wild type (domain or fragment)
chain: GLSAEQIAVLQEQGFELRDEGWEFGMSSKVLFGNNLDRLNPDSRNTLTKIARALLAVDIDKVRLEGHTDNYGDEGYNQKLSERRAESVAAVFREAGMPAANIEVRGLGMSKPVADNKTRAGRSENRRVAIIVPAE
notes: YfiB, P. aeruginosa, residues 34-168, lacking the signal peptide (residues 1-26) and periplasmic residues 27-33; ORF1 of pETDuet-1 with N-terminal His6 and a TEV cleavage site; no cleavage of the tag is told for YfiB; Monomer and dimer in solution (AUC); also called wild-type YfiB; apo YfiB
B4: YfiB^L43P (residues 34–168), co-expressed with YfiR (domain or fragment)
chain: B3 chain with L10P
notes: YfiB, P. aeruginosa, residues 34-168, with L43P; residues 44-168 are visible in the complex structure; Two copies in the 2:2 heterotetramer, separated from each other

What was measured:
[1] = molecular target: the molecule itself; experiment: crystal structure; YfiB^L43P-YfiR complex, space group P1, 1.78 Å, 2:2 heterotetramer in the asymmetric unit; 0.2 mol/L ammonium sulfate, 0.1 mol/L Tris-HCl pH 8.0, 12% PEG 8000, 293 K
[2] = molecular target: the molecule itself; experiment: crystal structure; VB6-bound (soaked, 2.4 Å) and Trp-bound (co-crystallised, 2.5 Å) YfiR, space group P4_3 2_1 2, a dimer in the asymmetric unit
[3] = molecular target: the molecule itself; experiment: AUC; sedimentation velocity, 25°C, samples at OD280 of 0.7 in 20 mmol/L Tris pH 8.0, 200 mmol/L NaCl, 60,000 rpm; dimer to monomers
[4] = molecular target: B1; experiment: crystal structure; YfiB^L43P-YfiR complex, space group P1, 1.78 Å, 2:2 heterotetramer in the asymmetric unit; 0.2 mol/L ammonium sulfate, 0.1 mol/L Tris-HCl pH 8.0, 12% PEG 8000, 293 K; conditions: both partners purified

## B1
[1]
  binding result: binds

## B2
[2]
  binding result: binds

## B3
[3]
  stoichiometry N: 2

## B4
[4]
  stoichiometry N: 1 YfiB per YfiR (printed as 2:2)
